Test results from patent US7838288B2, “Modulators of odorant receptors” (Duke University, priority 2004, dated 2010).

T1: mouse odorant receptor OREG (Mus musculus, UniProt Q920P2)
T1 construct: expressed in transfected cells; host or cells: 293T cells (with or without co-transfected REEP1/RTP1/RTP2) and Hana3A cells (293T stably expressing mouse REEP1, RTP1, RTP2, Galpha-olf)
T1 sequence (Q920P2 1-313): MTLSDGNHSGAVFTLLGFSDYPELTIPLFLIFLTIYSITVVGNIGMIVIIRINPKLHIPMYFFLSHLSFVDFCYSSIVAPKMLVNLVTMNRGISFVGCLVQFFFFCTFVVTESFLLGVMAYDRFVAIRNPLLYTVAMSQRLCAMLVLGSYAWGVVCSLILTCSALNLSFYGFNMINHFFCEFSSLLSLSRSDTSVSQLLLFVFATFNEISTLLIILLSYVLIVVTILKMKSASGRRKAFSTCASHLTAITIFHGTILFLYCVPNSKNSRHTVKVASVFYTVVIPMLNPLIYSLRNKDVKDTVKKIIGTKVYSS

B1: RTP1: Receptor Transporting Protein 1; murine SEQ ID NO: 33, human SEQ ID NO: 37 (protein, listed as Mus musculus)
chain: MRIFRPWRLRCPALHLPSFPTFSIKCSLPPLPTDEDMCKSVTTGEWKKVFYEKMEEVKPADSWDFIIDPNLKHNVLAPGWKQYLELHASGRFHCSWCWHTWQSPHVVILFHMYLDKAQRAGSVRMRVFKQLCYECGTARLDESSMLEENIESLVDNLITSLREQCYGERGGHYRIHVASRQDNRRHRGEFCEACQEGIVHWKPSEKLLEEEATTYTFSRAPSPTKPQAETGSGCNFCSIPWCLFWATVLMLIIYLQFSFRTSV
B2: REEP1: Receptor Expression Enhancing Protein 1; murine SEQ ID NO: 21, human SEQ ID NO: 27 (protein, listed as Mus musculus)
chain: MVSWIISRLVVLIFGTLYPAYYSYKAVKSKDIKEYVKWMMYWIIFALFTTAETFTDIFLCWFPFYYELKIAFVAWLLSPYTKGSSLLYRKFVHPTLSSKEKEIDDCLVQAKDRSYDALVHFGKRGLNVAATAAVMAASKGQGALSERLRSFSMQDLTTIRGDGAPAPSGPPPPGTGRSSGKHSQPKMSRSASESAGSSGTA

Assays:
MOR203-1 [1] = assay: Living-cell staining of cell-surface MOR203-1; assay type: cell-based, mouse; conditions: accessory protein co-transfected in 293T cells
Description: After hypothesizing that mammalian ORs require accessory protein(s) for functional cell surface expression, a search was instituted for detecting such molecule(s). Long-SAGE (serial analysis of gene expression) libraries (see, e.g., Saha, S., et al., (2002) Nat Biotechnol 20, 508-512; herein incorporated by reference in its entirety) were constructed from single olfactory neurons as well as neurons from the vomeronasal organ and genes were collected that are expressed by these neurons. To identify candidate genes expressed by the olfactory neurons Digital Differential Display (see, e.g., http://www, followed by, .ncbi.nlm.nih.gov/UniGene/info_ddd.shtml) was also used. Candidate genes were investigated for ORFs that encode membrane associated proteins. Genes were selected with similarities to known chaperones and cloned the cDNAs from olfactory epithelium cDNAs. The mRNA expression of each gene was verified by in situ hybridization. After isolating and subcloning into mammalian expression vectors, each cDNA together with a mouse OR (MOR203-1) tagged with a 20 N-terminal amino acids of rhodopsin (Rho-tag), was transfected into 293T cells. We measured whether these clones had any effect on the cell-surface expression of ORs by staining living cells using antibodies against the Rho-tag (see, e.g., Laird, D. W., and Molday, R. S. (1988) Invest Opthalmol Vis Sci 29, 419-428; herein incorporated by reference in its entirety). When MOR203-1 was transfected alone, antibody staining detected only faint cell-surface expression in less than 1% of the cells. A schematic diagram outlining the screening procedure utilized with the present invention is provided at FIG. 1.
293T cells were maintained in minimal essential medium containing 10% fetal bovine serum (M10). Lipofectamine 2000 (Invitrogen) was used for transfection. In live-cell staining, 16 hours after transfection, cells were incubated in M10 containing anti rhodopsin antibody, 4D2 (see, e.g., Laird, D. W., and Molday, R. S. (1988) Invest Opthalmol V is Sci 29, 419-428; herein incorporated by reference in its entirety) and 15 mM NaN3 at 4 degrees C. for 1 hour. After washing, cells were incubated with Cy3-conjugated anti mouse IgG (Jackson Immunologicals), washed and mounted. For FACS analysis, 4D2 and PE-conjugated anti mouse IgG (Jackson Immunologicals) were used to monitor the Rho tagged receptor expression. Anti HA rabbit antibodies (Sigma) and Alexa 488 conjugated anti rabbit IgG (Molecular Probes) was used to stain the HA-β2 adrenergic receptor. To establish the Hana3a cells, 1 ug/ml of puromycin was used for selection. 96 colonies were picked and assayed using luciferase assay using OREG.

[2] = molecular target: T1, mouse odorant receptor OREG; assay: CRE-luciferase reporter gene assay, OREG; assay type: cell-based; conditions: 293T cells; compared to OR alone or control pCI
Description: Poor odorant evoked signaling activity in heterologous cell culture systems expressing ORs has been attributed to the poor cell surface expression of ORs. The identification of REEP and/or RTP allowed a direct assessment of this issue. A luciferase reporter gene assay was employed in which a cAMP responsive element (CRE) mediated luciferase gene expression (see FIG. 8A). Because OR activation leads to an increase in cAMP, activation of the mouse odorant receptor OREG by its ligand eugenol was measured in the presence and absence of REEP and/or RTP (see, e.g., Kajiya, K., et al. (2001) J Neurosci 21, 6018-6025; Touhara, K., et al., (1999) Proc Natl Acad Sci USA 96, 4040-4045; each herein incorporated by reference in their entireties). As reported previously, eugenol increased levels of OREG dependent luciferase activity (see, e.g., Katada, S., et al. (2003) Biochem Biophys Res Commun 305, 964-969; herein incorporated by reference in its entirety).
To facilitate analysis of odorant-OR interactions, 293T cell lines were established which stably express REEP1, RTP1, RTP2 and Gαolf, the G protein alpha subunit that couples to OR (see, e.g., Belluscio, L., et al. (1998) Neuron 20, 69-81; Jones, D. T., and Reed, R. R. (1989). Science 244, 790-795; each herein incorporated by reference in their entireties). To establish such cells, linearized expression vectors containing mouse REEP1, RTP1, RTP2 and Gαolf ORFs were transfected into 293T cells with PGK-Pac (puromycin resistant gene) (see, e.g., Watanabe, S., et al. (1995) Biochem Biophys Res Commun 213, 130-137; herein incorporated by reference in its entirety). […] Enhanced cell-surface expression was observed when OREG or other ORs were transfected in Hana3A cells and immunostained (see FIG. 10). […] Expression of Gαolf alone in 293T cells had little or no effect on OR activation using this assay.
Dual-Glo system (Promega) for luciferase assay was used. CRE-Luciferase (Stratagene) was used to measure the receptor activities. Renilla luciferase driven by constitutively active SV40 promoter (pRL-SV40: Promega) was used as an internal control. Cells were plated on poly-D-lysine coated 96 well plates (BIOCOAT, Beckton Dickinson). After 8 hours (for experiments shown in FIGS. 8B and 8C) or 12 hours (for experiments shown in FIG. 8D and FIG. 11) after transfection, the medium was replaced with CD293 chemically defined medium (Invitrogen) and the plates were incubated for one hour at 37 degrees C. The medium was replaced with 50 ul of odorant solutions dissolved in CD293 and incubated for 10 hours (for experiments shown in FIGS. 8B and 8C) or 4 hours (for experiments shown in FIG. 8D and FIG. 11) at 37 degrees C. The manufacture's protocol for measuring luciferase and Renilla luciferase activities was followed. Luminescence was measured using Wallac Victor 1420 (Perkin-Elmer). Normalized luciferase activity was calculated as [Luc (N)-Luc (0)]/RL (N), where Luc (N)=Luminescent count of a certain well, Luc (0)=Luminescent count without odorant for each OR, and RL (N)=Luminescent count of Renilla Luciferase of each well. For cAMP assays, cells were plated onto 24-well plate. […]. Prism software (Graphpad) was used for data analysis.

MOR203-1 [3] = assay: Co-immunoprecipitation with HA-tagged MOR203-1; assay type: binding, mouse; conditions: Flag-tagged protein, 293T cells, HA-MOR203-1 precipitated
Experimental: Given the ability of REEP and/or RTP to promote cell-surface expression of ORs, it was hypothesized that they may also interact with OR proteins. This was assessed using co-immunoprecipitation assays. HA-tagged MOR203-1 and Flag-tagged REEP1, RTP1 or ICAP-1, a negative control (see, e.g., Zawistowski, J. S., et al. (2002) Hum Mol Genet. 11, 389-396; herein incorporated by reference in its entirety) were transfected in 293T cells. After the cell extracts were precipitated with anti-Flag antibodies, proteins were eluted in SDS-sample buffer at room temperature whereupon western blotting analysis was performed to detect the OR proteins. OR proteins were detected as high molecular weight bands after precipitation of REEP1 or RTP1 (see FIG. 7B, lanes 1 and 2). […] The present invention is not limited to a particular mechanism. Indeed, an understanding of the mechanism is not necessary to practice the present invention.
293T cells in 100 mm dishes were transfected with ORs, REEP1, and/or RTP1 cDNAs. 16 hours after transfection, cells were lysed in lysis buffer (50 mM Tris (7.4), 150 mM NaCl, 1% NP-40, 0.5 mM PMSF, 2 mM Benzamidene, 0.5 ug/ml Leupeptin, 1.4 ug/ml pepstatin A, 2.4 ug/ml chymostatin, 15 ug/ml aprotinin, 1 mM sodium orthovanadate). The lysis were incubated with anti-Flag M2 affinity gel (Sigma) or anti-HA affinity matrix (Roche) for 2 hours at 4 degrees C. and washed with lysis buffer. Subsequently, the bound proteins were eluted by incubation with SDS sample buffer at room temperature for 2 hours. SDS-PAGE and western blotting were performed according to Mini-Protean 3 Cell (Bio-Rad) instruction manual. ECL (Amersham) was used for detecting proteins on membranes.

Row | Molecule | cell surface expression of MOR203-1 (MOR203-1 [1]) | OREG activity by luciferase, accessory protein co-expressed [2] | co-precipitation with HA-MOR203-1 (MOR203-1 [3])
1 | B1 | enhanced both the number and staining intensity of cell surface expression | enhanced luciferase activities compared to OR alone | co-precipitated
2 | B2 | enhanced both the number and staining intensity of cell surface expression | enhanced luciferase activities compared to OR alone | co-precipitated
